The target in this test is soluble human FcRn (human) (UniProt P55899). Kind of test: SPR. On the technique in general: SPR reads the build-up and loss of mass on a sensor chip optically.
Sequence of UniProt P55899 (P55899 24-297, chain 1 of 2): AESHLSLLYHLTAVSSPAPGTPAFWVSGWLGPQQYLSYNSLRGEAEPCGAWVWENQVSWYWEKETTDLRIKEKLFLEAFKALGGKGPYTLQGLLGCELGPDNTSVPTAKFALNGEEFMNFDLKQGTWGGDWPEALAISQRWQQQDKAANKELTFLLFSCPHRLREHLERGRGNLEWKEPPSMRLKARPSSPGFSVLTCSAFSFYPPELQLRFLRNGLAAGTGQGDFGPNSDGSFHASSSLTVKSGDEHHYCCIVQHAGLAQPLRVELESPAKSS
Sequence of UniProt P55899 (P61769 21-119, chain 2 of 2, further chain): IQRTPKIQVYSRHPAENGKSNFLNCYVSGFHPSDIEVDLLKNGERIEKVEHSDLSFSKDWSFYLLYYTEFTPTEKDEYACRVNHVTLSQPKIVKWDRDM

Turning to “recombinant human IgG3 (anti-Streptococcus pneumoniae serotype 6) (antibody)”, the KD relative to WT IgG1 (fold of the KD of WT IgG1) is 2.

recombinant human IgG1–H435R (antibody): the KD relative to WT IgG1 (% higher than the KD of WT IgG1) was found to be 50.
